Experimental data: patent publication US20130316374A1, “BREAST CANCER DIAGNOSTICS” (IMBA - INSTITUT FUR MOLEKULARE BIOTECHNOLOGIE GMBH, priority 2010, published 2013)

Columns and labels:
mammary epithelial cells = test: γ-irradiation induced mammary epithelial cell apoptosis in vivo (active Caspase 3); set-up: species or system mouse; conditions: 5 Gray
Experimental: a, Western blotting for phosphorylated (P) IKKα, total IKKα, phosphorylated (P) p65 NFκB, total p65 NFκB, phosphorylated (P) IκBα, and total IκBα in isolated primary mouse mammary gland epithelial cells (MECs) in response to RANKL stimulation (1 μg/ml). […] Expression was determined by qRT-PCR. […] Apoptosis was detected by immunostaining for active Caspase 3. f, Apoptotic nuclei of epithelial cells (arrows) are shown for representative mammary gland sections. Magnifications ×40. g, Quantification of mammary epithelial apoptosis. A minimum of 5000 nuclei was counted for each mouse. […]
a,b, Reduced induction of mammary epithelial cell apoptosis in response to γ-irradiation in IKKαhu Δmam females. […] 24 hours after irradiation, apoptosis was detected by immunostaining for active Caspase 3. a, Apoptotic nuclei of epithelial cells (arrows) are shown for representative mammary gland sections. Magnifications ×40. b, Quantification of mammary epithelial apoptosis. A minimum of 5000 nuclei was counted for each mouse. […]
For histological analysis, 5 μm sections were cut and stained with hematoxylin and eosin (H&E). […] Histomorphometric indices (proliferation and apoptosis) were calculated as the number of positive epithelial cells divided by the total number of epithelial cells, with no fewer than 1000 nuclei for Ki67 stainings and no fewer than 5000 cells for active Caspase 3 staining counted per section. […]

[1] = tested on: human SKBR3 breast cancer cells; test: Western blotting of RANKL/RANK downstream signaling in SKBR3 cells; format: cell-based; conditions: RANKL stimulation (1 μg/ml)
Experimental: a, Western blotting for phosphorylated (P) p65 NFκB, total p65 NFκB, phosphorylated (P) IκBα, total IκBα, phosphorylated (P) ERK1/2, total ERK1/2, phosphorylated (P) p38-MAPK, and p38-MAPK in human SKBR3 breast cancer cells in response to RANKL stimulation (1 μg/ml). Data are representative of 3 experiments. b, Growth curve of SKBR3 breast cancer cells cultured in normal growth medium (control, DMEM supplemented with 10% FCS) or in the presence of RANKL (1 μg/ml). Cell numbers were determined by counting live cells (trypan blue-exclusion) over 3 days. c, Onset of palpable mammary tumors in NFATc1^Δmam (n=10) and age matched littermate control (n=16) females treated with MPA pellets and DMBA. Data are shown as percentage of tumor free mice after the last DMBA challenge. No significant difference was found. d, Quantification of NFATc1 mRNA expression in purified mammary epithelial cells (MECs) and MPA-driven mammary tumors from NFATc1^Δmam and littermate control females. mRNA was determined by qRT-PCR. Data are shown as fold change compared to control (+/−sem). n=5 Per group. *P<0.05 (Student's t-test).
The human epithelial breast tumor cell line SKBR3 and primary non-transformed mouse mammary epithelial cells were left untreated or stimulated with recombinant murine RANKL^ref. 9. Adenocarcinomas were isolated from control and mutant mice and total protein lysates prepared. […]

[2] = tested on: primary mouse mammary gland epithelial cells (MECs); test: Western blotting of RANKL/RANK downstream signaling in MECs; format: cell-based; conditions: RANKL stimulation (1 μg/ml)
Experimental: a, Western blotting for phosphorylated (P) IKKα, total IKKα, phosphorylated (P) p65 NFκB, total p65 NFκB, phosphorylated (P) IκBα, and total IκBα in isolated primary mouse mammary gland epithelial cells (MECs) in response to RANKL stimulation (1 μg/ml). […] is shown as loading control. b, Western blotting for IKKα, IKKβ, IKKγ, phosphorylated (P) p65 NFκB, total p65 NFκB, phosphorylated (P) IκBα, and total IκBα in pooled late stage mammary adenocarconimas (n=4 for each lane) that developed in control, RANK^Δmam, and IKKα^Δmam females. β-actin is shown as loading control c, Expression of RANK, CyclinD1, and p21 mRNA in late stage mammary adenocacinomas that developed in control, RANK^Δmam, and IKKα^Δmam females. Expression was determined by qRT-PCR. Data are mean values+/−sem. n=4 per group. d, Soft-Agar Colony Formation Assay. Growth of human SKBR3 breast cancer cells in soft agar in response to stimulation with RANKL (1 μg/ml) or EGF (100 ng/ml). […] Apoptosis was detected by immunostaining for active Caspase 3. f, Apoptotic nuclei of epithelial cells (arrows) are shown for representative mammary gland sections. Magnifications ×40. g, Quantification of mammary epithelial apoptosis. A minimum of 5000 nuclei was counted for each mouse. […]

Molecule: CC(=O)O[C@]1(C(C)=O)CC[C@H]2[C@@H]3C[C@H](C)C4=CC(=O)CC[C@]4(C)[C@H]3CC[C@@]21C [MPA, medroxyprogesterone acetate]
- γ-irradiation-induced apoptosis of mammary epithelial cells (mammary epithelial cells; control females, MPA pellet): protected from γ-irradiation-induced apoptosis
- protective effects of MPA on γ-irradiation-induced cell death (mammary epithelial cells; loss of RANK expression on mammary epithelial cells (RANK^Δmam)): abrogated

B1: RANKL: Receptor Activator of NF-κB Ligand; recombinant murine RANKL used for stimulation (protein, UniProt O35235 139-316, looked up)
Tumor necrosis factor ligand …: FSGAPAMMEGSWLDVAQRGKPEAQPFAHLTINAASIPSGSHKVTLSSWYHDRGWAKISNMTLSNGKLRVNQDGFYYLYANICFRHHETSGSVPTDYLQLMVYVVKTSIKIPSSHNLMKGGSTKNWSGNSEFHFYSINVGGFFKLRAGEEISIQVSNPSLLDPDQDATYFGAFKVQDID
- NFκB, p38-MAPKs and ERK activation [1]: induced NFκB, p38-MAPKs and ERK activation
- p65 NFκB and IκBα phosphorylation [2]: resulted in p65 NFκB and IκBα phosphorylation
- phosphorylation of p38-MAPKs and ERK [2]: triggered phosphorylation of p38-MAPKs and ERK
